In PMC5093550:

Columns and labels:
α-synuclein fibrils [1] = assay: fluorescence spectroscopy of the fibrils formed; seeded fibrils formed with unlabelled monomeric α-synuclein and monomeric Alexa-568-β-synuclein, compared with fibrils formed with Alexa-568-α-synuclein; pH 6.5
α-synuclein fibrils [2] = assay: microfluidic diffusional sizing; monomeric Alexa-568-β-synuclein incubated (15 min) with unlabelled α-synuclein fibrils at [α-synuclein fibrils]:[β-synuclein monomer] (M:M) of 5 and 40; conditions of the seeded kinetic experiments (pH 6.5); degree of binding estimated from the effective hydrodynamic radius

degree of incorporation into the fibrils (α-synuclein fibrils [1]): < 3%
degree of binding at [α-synuclein fibrils]:[β-synuclein monomer] ratio 5 (α-synuclein fibrils [2]): < 5%
degree of binding at [α-synuclein fibrils]:[β-synuclein monomer] ratio 40 (α-synuclein fibrils [2]): 10%
Substance: Alexa-568-β-synuclein, monomeric (from UniProt Q16143 1-134) (natural protein)
